Biological target: T1, Cx43-WT (human connexin43, transiently expressed) (human, UniProt P17302 1-382)
T1 construct: human connexin43 (Cx43; gene GJA1) from the expression plasmid pcDNA I/Neo; source: HeLa cells negative for Cx43, transfected (pcDNA I/Neo), in lysate
Assay: co-IP; lysates of HeLa cells negative for Cx43, co-transfected 48 h with Cx43-WT or Cx43-P283A and HA-ITCH-WT, immunoprecipitated with anti-Cx43 antibodies cross-linked to protein A-Sepharose, 2 h at 4 °C; HA-ITCH detected by western blot with anti-HA and normalised to Cx43 in the immunoprecipitate; in one experiment cells treated with DMSO or bafilomycin A1 (200 nM) for the last 18 h; rabbit IgG as control
Conditions: partners not purified

T1 sequence (P17302 whole entry): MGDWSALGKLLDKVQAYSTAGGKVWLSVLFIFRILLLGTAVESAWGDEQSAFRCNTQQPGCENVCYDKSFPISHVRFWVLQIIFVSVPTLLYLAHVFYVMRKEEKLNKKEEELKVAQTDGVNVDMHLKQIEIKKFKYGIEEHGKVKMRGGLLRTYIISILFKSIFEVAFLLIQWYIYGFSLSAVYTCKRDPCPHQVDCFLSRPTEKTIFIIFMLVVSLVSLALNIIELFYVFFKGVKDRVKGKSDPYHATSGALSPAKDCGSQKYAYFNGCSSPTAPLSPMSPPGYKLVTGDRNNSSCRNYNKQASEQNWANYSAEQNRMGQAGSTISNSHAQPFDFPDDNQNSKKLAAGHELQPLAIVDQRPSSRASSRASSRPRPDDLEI

fold increase of co-immunoprecipitated HA-ITCH with bafilomycin A1 against DMSO: ~4 fold
B1: HA-ITCH-wild type (enzyme)
chain: not shown
notes: E3 ubiquitin ligase ITCH, wild type, gene synthesised (GeneArt, Thermo Fisher); Isoform inferred only from the printed number of the catalytic cysteine (C830A mutant of the same cDNA); also called HA-ITCH-WT; source: HeLa cells negative for Cx43, transfected (pcDNA3.4-TOPO), in lysate
